Assay results from article doi:10.1101/2023.08.14.553235.

Molecular target: GFP1–10 tagged with MCP, with nuclear localization sequences
Test: P3 editing (protein-protein proximity sensor; genome editing read-out); HEK293T cells transfected with one of 12 designs of crRNA-MS2/BoxB-petracrRNA (upper 4-bp region of the repeat:anti-repeat duplex varied), PE4max and split-GFP or standard GFP (background); editing normalized to the eCTT control

normalized editing efficiency (GAUA:UAUC guide RNA design): 3.8%
Substance: GFP11 tagged with LambdaN, with nuclear localization sequences (peptide)
